This note sets out measurements from publication PMC12866752, “Computational Design and Glycoengineering of Interferon‐Lambda for Nasal Prophylaxis Against Respiratory Viruses” (Advanced Science, 2025).

The target of the experiment is T1, recombinant ectodomain of human IFN-λ receptor 1 (hIFN-λR1) (human, UniProt Q8IU57 21-228).
T1 construct: for the receptor neither is said; also called IFNLR1; source: recombinant; plasmids transfected into Expi293-F cells; purification of the receptor not described
T1 sequence (looked up): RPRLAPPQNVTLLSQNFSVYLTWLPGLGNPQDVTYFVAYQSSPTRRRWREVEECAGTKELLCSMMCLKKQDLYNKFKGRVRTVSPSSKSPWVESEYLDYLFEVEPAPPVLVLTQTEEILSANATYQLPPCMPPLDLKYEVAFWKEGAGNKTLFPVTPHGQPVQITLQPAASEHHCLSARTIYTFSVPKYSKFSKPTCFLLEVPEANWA
Kind of experiment: SPR; Biacore T200; His-tagged hIFN-λ3-WT or hIFN-λ3-DE1 immobilised on a Series S NTA chip to about 200 RU; analyte hIFN-λR1 ectodomain at 6.25, 12.5 and 25 nM, 60 s at 10 µL/min, 120 s dissociation; 1X PBS-P+ with 50 nM EDTA; global fit to a 1:1 model. As to conditions: both partners purified. (SPR reads the build-up and loss of mass on a sensor chip optically.)

B1: wild-type human interferon-λ3 (hIFN-λ3-WT), His-tagged (ligand, UniProt Q8IZI9 22-196, looked up)
chain: VPVARLRGALPDARGCHIAQFKSLSPQELQAFKRAKDALEESLLLKDCKCRSRLFPRTWDLRQLQVRERPVALEAELALTLKVLEATADTDPALGDVLDQPLHTLHHILSQLRACIQPQPTAGPRTRGRLHHWLHRLQEAPKKESPGCLEASVTFNLFRLLTRDLNCVASGDLCV
notes: human IFN-λ3, full-length cDNA in a modified pcDNA3.1 with a TEV site and C-terminal 6xHis tag; also called wild-type hIFN-λ3; source: Expi293-F cells, transfected, from the culture supernatant, purified (Ni-NTA, SEC); not shown: His6, C-terminal, kept
Consider B1, for which the binding result is “binds”.
